Measured values: patent publication US20160251440A1 (Ablynx, published 2016)
Where two headings read alike, the source gives them in different places.

T1: recombinant human CEACAM5 (human, UniProt P06731 35-685)
T1 construct: also called hCEACAM-5; R&D Systems 4128-CM
T1 sequence (looked up): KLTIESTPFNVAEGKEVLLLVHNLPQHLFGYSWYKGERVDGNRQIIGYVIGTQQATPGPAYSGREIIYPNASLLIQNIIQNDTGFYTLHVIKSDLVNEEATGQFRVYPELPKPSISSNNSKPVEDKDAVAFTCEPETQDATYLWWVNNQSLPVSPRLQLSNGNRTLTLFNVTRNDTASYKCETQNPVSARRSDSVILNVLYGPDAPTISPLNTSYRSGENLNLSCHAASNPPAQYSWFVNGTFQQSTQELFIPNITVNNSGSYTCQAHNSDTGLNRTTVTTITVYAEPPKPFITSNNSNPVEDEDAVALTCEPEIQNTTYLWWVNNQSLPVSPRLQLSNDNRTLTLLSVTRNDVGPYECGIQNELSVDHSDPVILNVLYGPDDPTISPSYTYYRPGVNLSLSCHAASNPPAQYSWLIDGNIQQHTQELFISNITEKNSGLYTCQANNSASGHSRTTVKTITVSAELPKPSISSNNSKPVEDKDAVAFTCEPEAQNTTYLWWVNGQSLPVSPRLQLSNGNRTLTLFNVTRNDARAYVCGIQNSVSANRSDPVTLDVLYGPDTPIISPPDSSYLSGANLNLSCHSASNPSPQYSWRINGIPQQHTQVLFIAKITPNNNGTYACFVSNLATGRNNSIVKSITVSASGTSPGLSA

T2: human CEACAM5, cell-expressed (human, UniProt P06731 35-685)
T2 construct: whole, on cells
T2 sequence (looked up): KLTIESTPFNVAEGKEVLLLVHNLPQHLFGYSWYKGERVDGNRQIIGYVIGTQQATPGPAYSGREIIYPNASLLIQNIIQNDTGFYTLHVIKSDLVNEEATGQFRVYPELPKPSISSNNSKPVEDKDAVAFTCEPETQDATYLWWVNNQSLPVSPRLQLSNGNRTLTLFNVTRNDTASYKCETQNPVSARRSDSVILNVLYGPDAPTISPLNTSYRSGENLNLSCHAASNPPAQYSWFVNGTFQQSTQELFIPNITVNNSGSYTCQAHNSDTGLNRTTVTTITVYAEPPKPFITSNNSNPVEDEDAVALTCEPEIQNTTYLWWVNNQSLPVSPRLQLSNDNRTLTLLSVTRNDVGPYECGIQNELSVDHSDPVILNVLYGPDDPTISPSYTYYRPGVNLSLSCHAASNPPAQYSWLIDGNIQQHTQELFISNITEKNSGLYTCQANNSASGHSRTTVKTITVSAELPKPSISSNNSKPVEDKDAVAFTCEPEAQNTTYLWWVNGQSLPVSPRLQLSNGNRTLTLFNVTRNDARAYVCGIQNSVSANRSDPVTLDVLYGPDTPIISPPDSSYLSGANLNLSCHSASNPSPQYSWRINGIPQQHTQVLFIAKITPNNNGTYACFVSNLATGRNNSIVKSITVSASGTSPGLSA

B1: 281F12-9GS-03F11 (bispecific antibody)
chain: EVQLVESGGGLVQAGDSLRLSCAASGRAFSRYAMGWFRQAPGKEREFVAAIGWGPSKTNYADSVKGRFTISRDNAKNTVYLQMNTLKPEDTAVYSCAAKFVNTDSTWSRSEMYTYWGQGTQVTVSSGGGSGGGGSEVQLVESGGGSVQPGGSLTLSCGTSGRTFNVMGWFRQAPGKEREFVAAVRWSSTGIYYTQYADSVKSRFTISRDNAKNTVYLEMNSLKPEDTAVYYCAADTYNSNPARWDGYDFRGQGTQVTVSS
notes: also called CXCR4#2-9GS-CD4#8
B2: CEA#1-35GS-ctrl (bispecific antibody)
chain: EVQLVESGGGSVQAGGSLRLSCAASGDTYGSYWMGWFRQAPGKEREGVAAINRGGGYTVYADSVKGRFTISRDTAKNTVYLQMNSLRPDDTADYYCAASGVLGGLHEDWFNYWGQGTLVTVSSGGGGSGGGGSGGGGSGGGGSGGGGSGGGGSGGGGSDVQLQASGGGSVQAGGSLRLSCAASGYTIGPYCMGWFRQAPGKEREGVAAINMGGGITYYADSVKGRFTISQDNAKNTVYLLMNSLEPEDTAIYYCAADSTIYASYYECGHGLSTGGYGYDSWGQGTQVTVSS
notes: also called BI#48; T023200048
B3: CEA#5-35GS-ctrl (bispecific antibody)
chain: EVQLVESGGGSVQAGGSLRLSCAASGDTYGSYWMGWFRQAPGQEREAVAAINRGGGYTVYADSVKGRFTISRDNAKNTLYLQMNSLRPDDTADYYCAASGVLGGLHEDWFNYWGQGTLVTVSSGGGGSGGGGSGGGGSGGGGSGGGGSGGGGSGGGGSDVQLQASGGGSVQAGGSLRLSCAASGYTIGPYCMGWFRQAPGKEREGVAAINMGGGITYYADSVKGRFTISQDNAKNTVYLLMNSLEPEDTAIYYCAADSTIYASYYECGHGLSTGGYGYDSWGQGTQVTVSS
notes: also called BI#51; T023200051
B4: CEA#5 (VHH)
VHH: EVQLVESGGGSVQAGGSLRLSCAASGDTYGSYWMGWFRQAPGQEREAVAAINRGGGYTVYADSVKGRFTISRDNAKNTLYLQMNSLRPDDTADYYCAASGVLGGLHEDWFNYWGQGTLVTVSS
notes: also called T023200005; NbCEA5(K43Q, G47A, T73N, V78L)
B5: CEA#1 (VHH)
VHH: EVQLVESGGGSVQAGGSLRLSCAASGDTYGSYWMGWFRQAPGKEREGVAAINRGGGYTVYADSVKGRFTISRDTAKNTVYLQMNSLRPDDTADYYCAASGVLGGLHEDWFNYWGQGTLVTVSS
notes: also called NbCEA5

Experiments:
[1] = biological target: CXCR4 and CD4 co-expressed on cells (MOLM-13, THP-1, MT-4, PBMC; Jurkat CD4 low) (human, UniProt P61073 1-352; P01730 26-458); experiment: cell-based or functional assay
[2] = biological target: T3, human CXCR4 (on cells, viral lipoparticles or membrane extracts) (human, UniProt P61073 1-352); experiment: ELISA on coated hCXCR4 lipoparticles against null lipoparticles at 100, 10, 1 and 0 nM, anti-c-myc detection
T3 construct: whole, on cells; also called hCXCR4 VLPs; CXCR4-lip

[3] = biological target: T1, recombinant human CEACAM5; experiment: ELISA, coated CEACAM5
[4] = biological target: T2, human CEACAM5, cell-expressed; experiment: FACS, LoVo cells
[5] = biological target: T1, recombinant human CEACAM5; experiment: SPR Biacore T100, immobilised hCEACAM-5
[6] = biological target: T4, human EGFR, cell-expressed (human, UniProt P00533 25-1210); experiment: flow cytometry on HER14 cells (EGFR only), anti-Flag detection
T4 construct: whole, on cells; also called ErbB-1

[7] = biological target: T2, human CEACAM5, cell-expressed; experiment: FACS, LoVo cells; remark: listed apart in the source
[8] = biological target: T1, recombinant human CEACAM5; experiment: ELISA, coated CEACAM5; remark: listed apart in the source

CXCR4 and CD4 co-expressed on cells (MOLM-13, THP-1, MT-4, PBMC; Jurkat CD4 low), sequence (P61073 whole entry, chain 1 of 2, other chains not shown): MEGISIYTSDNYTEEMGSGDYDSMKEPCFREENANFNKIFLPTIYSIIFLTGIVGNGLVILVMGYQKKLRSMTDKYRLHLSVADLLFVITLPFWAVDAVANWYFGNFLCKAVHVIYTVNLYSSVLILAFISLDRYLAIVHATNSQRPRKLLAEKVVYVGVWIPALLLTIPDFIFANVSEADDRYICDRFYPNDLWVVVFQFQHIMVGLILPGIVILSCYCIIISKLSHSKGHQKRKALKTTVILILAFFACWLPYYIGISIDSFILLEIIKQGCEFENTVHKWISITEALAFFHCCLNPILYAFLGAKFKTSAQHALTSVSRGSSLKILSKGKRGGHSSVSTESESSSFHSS
T3 sequence (P61073 whole entry): as the sequence (P61073 whole entry, chain 1 of 2, other chains not shown) above

| Binder | EC50 [3] | EC50 [4] | Kd [5] | koff [5] | kon [5] | binding result [6] | EC50 [7] | EC50 [8] | further results |
| --- | --- | --- | --- | --- | --- | --- | --- | --- | --- |
| B1 |  |  |  |  |  |  |  |  | IC50, HIV-1 NL4.3 (X4), MT-4 [1]: 0.2 nM; IC50, HIV-1 NL4.3 (X4), PBMC [1]: 0.03 nM; IC50, HIV-1 NL4.3 (X4), U87 [1]: 0.53 nM; binding result [2]: binds |
| B2 | 0.026 nM | 0.92 nM |  |  |  |  |  |  |  |
| B3 | 0.11 nM | 2.6 nM |  |  |  |  |  |  |  |
| B4 |  |  | 3.1 nM | 0.0033 s⁻¹ | 1.1e+06 M⁻¹ s⁻¹ | no binding (tested: about 1E-7 M) | 2.4 nM | 0.11 nM |  |
| B5 |  |  | 0.51 nM | 0.00051 s⁻¹ | 990000 M⁻¹ s⁻¹ | no binding (tested: about 1E-7 M) | 1 nM | 0.026 nM |  |
